In publication PMC4371549:
Where two headings read alike, the source gives them in different places.

Legend:
Test in all cases: resonant mirror detection
calmodulin = calmodulin (UniProt P0DP23)
[1] = target: cytoplasmic domain of CD44 (UniProt P16070)
[2] = target: cytoplasmic domain of glycophorin C (UniProt P04921)
[3] = target: cytoplasmic domain of band 3 (UniProt P02730)
p55 [4] = target: p55 (UniProt Q00013)
[5] = target: cytoplasmic domain of CD44 (UniProt P16070); remark: listed apart in the source
[6] = target: cytoplasmic domain of glycophorin C (UniProt P04921); remark: listed apart in the source
[7] = target: cytoplasmic domain of band 3 (UniProt P02730); remark: listed apart in the source
p55 [8] = target: p55 (UniProt Q00013); remark: listed apart in the source

Chain of cytoplasmic domain of band 3 (P02730 1-403): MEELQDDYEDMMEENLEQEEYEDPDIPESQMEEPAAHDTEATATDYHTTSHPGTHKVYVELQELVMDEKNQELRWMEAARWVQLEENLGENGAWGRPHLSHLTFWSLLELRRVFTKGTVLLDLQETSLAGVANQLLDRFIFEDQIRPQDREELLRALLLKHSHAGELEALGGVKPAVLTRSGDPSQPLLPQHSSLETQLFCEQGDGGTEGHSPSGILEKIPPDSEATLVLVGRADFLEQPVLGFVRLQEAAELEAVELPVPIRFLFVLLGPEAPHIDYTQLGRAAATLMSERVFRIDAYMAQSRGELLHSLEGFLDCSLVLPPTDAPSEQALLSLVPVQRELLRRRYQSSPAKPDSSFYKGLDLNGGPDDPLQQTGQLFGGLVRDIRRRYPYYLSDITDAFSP
Chain of p55 (Q00013 whole entry, the tested form may be a part): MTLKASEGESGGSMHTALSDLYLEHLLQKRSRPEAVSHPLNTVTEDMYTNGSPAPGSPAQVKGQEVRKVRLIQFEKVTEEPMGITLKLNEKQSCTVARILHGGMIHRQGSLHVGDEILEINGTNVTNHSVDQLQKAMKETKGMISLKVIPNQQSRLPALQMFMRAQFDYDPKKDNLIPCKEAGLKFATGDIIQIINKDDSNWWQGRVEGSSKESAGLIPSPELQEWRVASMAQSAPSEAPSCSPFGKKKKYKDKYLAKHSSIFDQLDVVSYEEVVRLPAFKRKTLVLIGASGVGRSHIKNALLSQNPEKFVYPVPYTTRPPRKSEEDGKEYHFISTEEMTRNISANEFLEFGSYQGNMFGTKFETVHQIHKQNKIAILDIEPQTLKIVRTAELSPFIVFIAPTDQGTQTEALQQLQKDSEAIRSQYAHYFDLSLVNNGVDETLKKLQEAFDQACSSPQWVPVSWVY
Chain of cytoplasmic domain of CD44 (P16070 671-742): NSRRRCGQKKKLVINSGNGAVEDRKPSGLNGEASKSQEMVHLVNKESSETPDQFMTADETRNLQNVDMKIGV
Chain of cytoplasmic domain of glycophorin C (P04921 82-128): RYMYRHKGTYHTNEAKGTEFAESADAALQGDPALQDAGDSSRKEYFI

Substance | Kd (calmodulin) [nM] | kon (calmodulin) [M⁻¹ s⁻¹] | Kd [1] [nM] | koff [1] [s⁻¹] | kon [1] [M⁻¹ s⁻¹] | Kd [2] [nM] | Kd [3] [nM] | koff [3] [s⁻¹] | Kd (p55 [4]) [nM] | Kd [5] [nM] | koff [5] [s⁻¹] | kon [5] [M⁻¹ s⁻¹] | Kd [6] [nM] | Kd [7] [nM] | Kd (p55 [8]) [nM] | koff (p55 [8]) [s⁻¹]
GHP-G30 (headpiece region and 30kDa domain of 4.1G) (from UniProt O43491 1-1005) (domain or fragment) | 2970 | 180000 | – | – | – | – | – | – | – | – | – | – | – | – | – | –
G30 (30kDa membrane binding domain of protein 4.1G) (from UniProt O43491 1-1005) (domain or fragment) | 190 | – | – | – | – | – | – | – | – | – | – | – | – | – | – | –
complex of RHP-G30 and CaM (from UniProt P11171 1-209; P0DP23 1-149) | – | – | 314 | 0.016 | 51000 | 237 | 183 | 0.012 | 113 | 737 | 0.019 | 25000 | 1480 | 2190 | 1760 | 0.012
